Patent publication US20240252592A1 (TIANJIN INSTITUTE OF PHARMACEUTICAL RESEARCH, published 2024)
Numbered stars: 1 amine (or outer) side, 2 acyl side, 3 side chain; on linkers, the order of the positions; unused ones are H or OH. Square brackets hold non-standard residues; d marks the D form. Side chains are listed from the residue outwards. Ends that are not written are not given here. * marks the point of attachment. OC17H32COOH = fatty diacid acyl group -OC17H32COOH on the linker; C20 diacid = O=C(O)CCCCCCCCCCCCCCCCCCC(=O)*; C18 diacid = O=C(O)CCCCCCCCCCCCCCCCC(=O)*; γGlu = O=C(O)[C@H](CCC(=O)[*:2])N[*:1]; Palmitoyl = CCCCCCCCCCCCCCCC(=O)*; AEEA = NCCOCCOCC(=O)O; Aib = CC(C)(N)C(=O)O

Tests used:
human GLP-1 receptor = human GLP-1 receptor (human, UniProt P43220 24-463); experiment: cell-based or functional assay
GC receptor = experiment: cell-based or functional assay

Binder	EC50 of GLP-1 receptor mediated cAMP production (human GLP-1 receptor) [nM]	EC50 of GC receptor mediated cAMP production (GC receptor) [nM]
H[Aib]QGTFTSDYSKYLEEKRAK([γGlu-γGlu-Palmitoyl])EFVEWLEGGPSSG-NH2 (not fully specified; printed as HAibQGTFTSDYSKYLEEKRAK*EFVEWLEGGPSSG-Amid) [Compound 76]	0.22	0.191
H[Aib]QGTFTSDYSKYLEEKRAK([AEEA-AEEA-γGlu-C18 diacid])EFVAWLEGGPSSG-NH2 (not fully specified; printed as HAibQGTFTSDYSKYLEEKRAK**EFVAWLEGGPSSG-Amid) [Compound 74]	0.842	0.725
HXQGTFTSDKSKYLXERAAKEFIXWLEAGGPSSG (HELM PEPTIDE1{H.[Aib].Q.G.T.F.T.S.D.K.S.K.Y.L.E.E.R.A.A.K.E.F.I.A.W.L.E.A.G.G.P.S.S.G.[am]}|PEPTIDE2{[CCCCCCCCCCCCCCCC(=O)[*:2]].[gGlu].[gGlu]}$PEPTIDE1,PEPTIDE2,10:R3-3:R2$$$V2.0; N-terminus assumed; SMILES CCCCCCCCCCCCCCCC(=O)N[C@@H](CCC(=O)N[C@@H](CCC(=O)NCCCC[C@H](NC(=O)[C@H](CC(=O)O)NC(=O)[C@H](CO)NC(=O)[C@@H](NC(=O)[C@H](Cc1ccccc1)NC(=O)[C@@H](NC(=O)CNC(=O)[C@H](CCC(N)=O)NC(=O)C(C)(C)NC(=O)[C@@H](N)Cc1c[nH]cn1)[C@@H](C)O)[C@@H](C)O)C(=O)N[C@@H](CO)C(=O)N[C@@H](CCCCN)C(=O)N[C@@H](Cc1ccc(O)cc1)C(=O)N[C@@H](CC(C)C)C(=O)N[C@@H](CCC(=O)O)C(=O)N[C@@H](CCC(=O)O)C(=O)N[C@@H](CCCNC(=N)N)C(=O)N[C@@H](C)C(=O)N[C@@H](C)C(=O)N[C@@H](CCCCN)C(=O)N[C@@H](CCC(=O)O)C(=O)N[C@@H](Cc1ccccc1)C(=O)N[C@H](C(=O)N[C@@H](C)C(=O)N[C@@H](Cc1c[nH]c2ccccc12)C(=O)N[C@@H](CC(C)C)C(=O)N[C@@H](CCC(=O)O)C(=O)N[C@@H](C)C(=O)NCC(=O)NCC(=O)N1CCC[C@H]1C(=O)N[C@@H](CO)C(=O)N[C@@H](CO)C(=O)NCC(N)=O)[C@@H](C)CC)C(=O)O)C(=O)O) [Compound 1]	0.0654	0.0574
HXQGTFTSDKSKYLXERAAKEFIXWLEAGGPSSG (not fully specified; Lys 10 side chain -Ado-Ado-γE-OC17H32COOH; C-terminal amide) [Compound 79]	0.033	0.025
H[Aib]QGTFTSDYSKYLEERKAK([γGlu-γGlu-Palmitoyl])EFVEWLEGGPSSG-NH2 (not fully specified; printed as HAibQGTFTSDYSKYLEERKAK*EFVEWLEGGPSSG-Amid) [Compound 62]	0.313	0.156
H[Aib]QGTFTSDYSKYLDERKAK([γGlu-γGlu-Palmitoyl])EFVEWLEGGPSSG-NH2 (not fully specified; printed as HAibQGTFTSDYSKYLDERKAK*EFVEWLEGGPSSG-Amid) [Compound 69]	0.778	0.261
H[Aib]QGTFTSDYSKYLDERKAK([AEEA-AEEA-γGlu-OC17H32COOH])EFIEWLEGGPSSG-NH2 (not fully specified; printed as HAibQGTFTSDYSKYLDERKAK**EFIEWLEGGPSSG-Amid) [Compound 66]	0.051	0.058
HSQGTFTSDYSKYLDERAAK([AEEA-AEEA-γGlu-C18 diacid])EFIAWLEGGPSSG-NH2 (not fully specified; printed as HSQGTFTSDYSKYLDERAAK**EFIAWLEGGPSSG-Amid) [Compound 38]	0.716	0.102
H[Aib]QGTFTSDYSKYLEERKAK([AEEA-AEEA-γGlu-C18 diacid])EFIAWLEAGGPSSG-NH2 (not fully specified; printed as HAibQGTFTSDYSKYLEERKAK**EFIAWLEAGGPSSG-Amid) [Compound 44]	0.371	0.219
H[Aib]QGTFTSDYSKYLDEKRAK([AEEA-AEEA-γGlu-C18 diacid])EFIAWLEAGGPSSG-NH2 (not fully specified; printed as HAibQGTFTSDYSKYLDEKRAK**EFIAWLEAGGPSSG-Amid) [Compound 50]	0.119	0.048
H[Aib]QGTFTSDYSKYLDEKRAK([γGlu-γGlu-Palmitoyl])EFIAWLEAGGPSSG-NH2 (not fully specified; printed as HAibQGTFTSDYSKYLDEKRAK*EFIAWLEAGGPSSG-Amid) [Compound 57]	0.094	0.081
H[Aib]QGTFTSDYSKYLEEKRAK([AEEA-AEEA-γGlu-C18 diacid])EFVEWLEAGGPSSG-NH2 (not fully specified; printed as HAibQGTFTSDYSKYLEEKRAK**EFVEWLEAGGPSSG-Amid) [Compound 54]	0.219	0.274
H[Aib]QGTFTSDYSKYLEEKRAK([AEEA-AEEA-γGlu-C18 diacid])EFVAWLEAGGPSSG-NH2 (not fully specified; printed as HAibQGTFTSDYSKYLEEKRAK**EFVAWLEAGGPSSG-Amid) [Compound 53]	0.532	0.316
H[Aib]QGTFTSDYSKYLEERKAK([AEEA-AEEA-γGlu-C20 diacid])EFIAWLEGGPSSG-NH2 (not fully specified; printed as HAibQGTFTSDYSKYLEERKAK***EFIAWLEGGPSSG-Amid) [Compound 68]	0.13	0.314
H[Aib]QGTFTSDYSKYLDERKAK([AEEA-AEEA-γGlu-C18 diacid])EFVEWLEAGGPSSG-NH2 (not fully specified; printed as HAibQGTFTSDYSKYLDERKAK**EFVEWLEAGGPSSG-Amid) [Compound 42]	0.52	0.024
